Laboratory results taken from PMC8429893, “CTP regulates membrane-binding activity of the nucleoid occlusion protein Noc” (Molecular Cell, 2021).

Experiments:
Noc (N121S) [1] = target: T1, Noc (N121S) (Bacillus subtilis, UniProt P37524, N121S); experiment: ITC; assay type: binding
T1 construct: B. subtilis Noc (N121S), His6-tagged

[2] = target: T2, Noc (nucleoid occlusion protein) (Bacillus subtilis, UniProt P37524); experiment: ITC; assay type: binding
T2 construct: B. subtilis Noc (WT), His6-tagged

[3] = target: Geobacillus thermoleovorans NocNΔ26ΔCTD (Geobacillus thermoleovorans); experiment: crystal structure; G. thermoleovorans NocNΔ26ΔCTD, premixed with 1 mM CTPγS and 1 mM MgCl2 (no nucleotide in the density), 2.95 Å, space group C222(1), one copy per asymmetric unit; dimer with a symmetry mate
Noc [4] = target: T3, Noc (Bacillus subtilis, UniProt P37524 1-283); experiment: BLI; 1 mM CTP; BLI: 100 mM Tris-HCl pH 8.0, 150 mM NaCl, 1 mM MgCl2, 0.005% Tween 20, 22 C; 1 uM Noc dimer +/- 1 mM NTP; conditions: protein: recombinant; tags: C-terminal His6; chain copies: 2; label: biotin on both ends; blunt
T3 sequence: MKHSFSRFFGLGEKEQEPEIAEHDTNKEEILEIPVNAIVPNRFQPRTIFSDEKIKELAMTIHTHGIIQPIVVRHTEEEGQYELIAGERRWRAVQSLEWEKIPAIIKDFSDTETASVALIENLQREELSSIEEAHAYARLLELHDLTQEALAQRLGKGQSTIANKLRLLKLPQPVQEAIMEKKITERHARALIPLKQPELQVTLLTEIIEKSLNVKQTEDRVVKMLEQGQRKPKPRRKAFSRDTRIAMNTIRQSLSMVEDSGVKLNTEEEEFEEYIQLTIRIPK

Noc (N121S) [5] = target: T4, Noc (N121S) (Bacillus subtilis, UniProt P37524 1-283, N121S); experiment: BLI; 1 mM CTP; nucleates, does not spread; BLI: 100 mM Tris-HCl pH 8.0, 150 mM NaCl, 1 mM MgCl2, 0.005% Tween 20, 22 C; 1 uM Noc dimer +/- 1 mM NTP; conditions: protein: recombinant; tags: C-terminal His6; chain copies: 2; label: biotin on both ends; blunt
T4 sequence: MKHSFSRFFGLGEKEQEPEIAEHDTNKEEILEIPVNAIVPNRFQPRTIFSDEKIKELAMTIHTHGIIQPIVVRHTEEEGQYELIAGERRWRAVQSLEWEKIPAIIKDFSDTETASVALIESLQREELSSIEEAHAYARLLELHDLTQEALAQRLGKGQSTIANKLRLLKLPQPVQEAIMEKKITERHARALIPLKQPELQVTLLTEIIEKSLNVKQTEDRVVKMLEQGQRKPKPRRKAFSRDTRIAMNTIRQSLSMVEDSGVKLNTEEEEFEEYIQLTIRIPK

Noc (R89A) = target: T5, Noc (R89A) (Bacillus subtilis, UniProt P37524 1-283, R89A); experiment: as above; conditions: protein: recombinant; tags: C-terminal His6; chain copies: 2; label: biotin on both ends; blunt
T5 sequence: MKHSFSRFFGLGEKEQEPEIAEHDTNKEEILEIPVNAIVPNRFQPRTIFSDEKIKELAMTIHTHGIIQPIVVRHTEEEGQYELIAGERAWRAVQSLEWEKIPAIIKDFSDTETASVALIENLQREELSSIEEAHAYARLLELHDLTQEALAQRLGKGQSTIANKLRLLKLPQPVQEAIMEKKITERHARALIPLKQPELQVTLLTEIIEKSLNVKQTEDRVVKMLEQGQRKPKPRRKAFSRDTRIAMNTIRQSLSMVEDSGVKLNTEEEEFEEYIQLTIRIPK

Noc [6] = target: T3, Noc; experiment: BLI; 1 uM Noc; 1 mM CTP; BLI: 100 mM Tris-HCl pH 8.0, 150 mM NaCl, 1 mM MgCl2, 0.005% Tween 20, 22 C; 1 uM Noc dimer +/- 1 mM NTP; conditions: protein: recombinant; tags: C-terminal His6; chain copies: 2; label: biotin on both ends; blunt
Noc [7] = target: T3, Noc; experiment: BLI; 1 mM CTP; no increase beyond nucleation; BLI: 100 mM Tris-HCl pH 8.0, 150 mM NaCl, 1 mM MgCl2, 0.005% Tween 20, 22 C; 1 uM Noc dimer +/- 1 mM NTP; conditions: protein: recombinant; tags: C-terminal His6; chain copies: 2; label: biotin at M13F end; 5' overhang 4 nt (GATC) at BamHI end
[8] = target: the molecule itself; experiment: cross-linking; BMOE (1 mM) cysteine crosslinking of 10 uM Noc variant ± 1 mM NTP ± 1 uM 22 bp NBS/parS DNA; 10 mM Tris-HCl pH 7.4, 200 mM NaCl, 1 mM MgCl2; 10 min at 22°C; SDS-PAGE, Coomassie, band quantification; reads self-engagement of the N-terminal domain

Molecule: Nc1ccn([C@@H]2O[C@H](COP(=O)(O)OP(=O)(O)OP(O)(O)=S)[C@@H](O)[C@H]2O)c(=O)n1 [CTPɣS]
- Kd (Noc (N121S) [1]): 232 ± 66 µM
- Kd [2]: 68 ± 23 µM

Molecule: Geobacillus thermoleovorans NocNΔ26ΔCTD (domain or fragment)
- stoichiometry N [3]: 2

B1: 170 bp NBS DNA, closed (dsDNA)
DNA 1: CGCCAGGGTTTTCCCAGTCACGACGTTGTAAAACGACGGCCAGAATTCGCAACGTGTATTTCCCGGGAAATAGCCTTGAACTGATAACGACTCTATCATTGATAGAGTGTTCTCTCCACGGGATCCCCAGGCATGCAAGCTTGGCGTAATCATGGTCATAGCTGTTTCCT
DNA 2: AGGAAACAGCTATGACCATGATTACGCCAAGCTTGCATGCCTGGGGATCCCGTGGAGAGAACACTCTATCAATGATAGAGTCGTTATCAGTTCAAGGCTATTTCCCGGGAAATACACGTTGCGAATTCTGGCCGTCGTTTTACAACGTCGTGACTGGGAAAACCCTGGCG
- binding signal (Noc [4]): ~6 fold BLI response vs no CTP
- binding result (Noc (N121S) [5]): binds
- binding result (Noc (R89A)): binds

B2: 170 bp parS DNA, closed (dsDNA)
DNA 1: CGCCAGGGTTTTCCCAGTCACGACGTTGTAAAACGACGGCCAGAATTCGCAACGTGTGTTTCACGTGAAACAGCCTTGAACTGATAACGACTCTATCATTGATAGAGTGTTCTCTCCACGGGATCCCCAGGCATGCAAGCTTGGCGTAATCATGGTCATAGCTGTTTCCT
DNA 2: AGGAAACAGCTATGACCATGATTACGCCAAGCTTGCATGCCTGGGGATCCCGTGGAGAGAACACTCTATCAATGATAGAGTCGTTATCAGTTCAAGGCTGTTTCACGTGAAACACACGTTGCGAATTCTGGCCGTCGTTTTACAACGTCGTGACTGGGAAAACCCTGGCG
- binding result (Noc [6]): no binding

B3: 170 bp NBS DNA, BamHI-cut (open) (dsDNA)
DNA 1: CGCCAGGGTTTTCCCAGTCACGACGTTGTAAAACGACGGCCAGAATTCGCAACGTGTATTTCCCGGGAAATAGCCTTGAACTGATAACGACTCTATCATTGATAGAGTGTTCTCTCCACGG
DNA 2: GATCCCGTGGAGAGAACACTCTATCAATGATAGAGTCGTTATCAGTTCAAGGCTATTTCCCGGGAAATACACGTTGCGAATTCTGGCCGTCGTTTTACAACGTCGTGACTGGGAAAACCCTGGCG
- binding result (Noc [7]): binds

B4: B. subtilis NocNΔ10 (E29C) (domain or fragment, Bacillus subtilis, UniProt P37524 11-283, looked up)
chain: LGEKEQEPEIAEHDTNKECILEIPVNAIVPNRFQPRTIFSDEKIKELAMTIHTHGIIQPIVVRHTEEEGQYELIAGERRWRAVQSLEWEKIPAIIKDFSDTETASVALIENLQREELSSIEEAHAYARLLELHDLTQEALAQRLGKGQSTIANKLRLLKLPQPVQEAIMEKKITERHARALIPLKQPELQVTLLTEIIEKSLNVKQTEDRVVKMLEQGQRKPKPRRKAFSRDTRIAMNTIRQSLSMVEDSGVKLNTEEEEFEEYIQLTIRIPK
- binding result [8]: binds
